In patent US9702869B2, “Assays, antibodies, immunogens and compositions related to 5-FU” (WELLSTAT DIAGNOSTICS, LLC, priority 2011, dated 2017):

Key:
Format in all cases: binding
[1] = Indirect antibody ELISA on 5-FU-BSA coated plates, competition with 5-FU
Procedure: (§1) In this experiment, antibody capture reagents were 5-FU BSA conjugates modified at the 5-FU position 1 with either 3-carbon or 5-carbon linkers. 5-FU was conjugated to BSA by mixing 1-5C-5-FU-NHS ester with BSA at a challenge ratio of 12:1 (molar ratios of 1-5C-5-FU-NHS to BSA) in a phosphate buffer containing a phosphate buffered saline containing 10.5 mM KH2PO4, 139.5 mM K2HPO4 and 150.6 mM NaCl, =pH 7.7-7.9 (typically pH 7.8) for 1 hour or more incubation at room temperature (typically 1 hour incubation at room temperature). After the incubation, unbound 1-5C-5-FU-NHS ester was removed by 3 buffer exchanges in an AmiconUltra4-30K filter (Millipore, Cat#UFC803024). BSA conjugated with 5-FU (5-FU-BSA) was concentrated and stored in the same phosphate buffer (pH 7.8).
(§2) This indirect antibody ELISA assay 5-FU assay was constructed using either 1-3C-5-FU-BSA or 1-5C-5-FU-BSA as antibody capture reagent and a horseradish perioxidase (HRP) conjugated goat anti-mouse antibody as the antibody detector reagent. The binding of 5-FU antibody was detected with 3,3,5,5-TetraMethylBenzidine (TMB) as the HRP enzyme substrate. The 5-FU ELISA assay signal (OD450) decreased proportionally to the increasing concentration of 5-FU. The 5-FU IC50 and tegafur cross-reactivity were determined as in the previous section. […]

[2] = Indirect antibody ELISA, cross-reactivity with tegafur; details: (IC50 for 5-FU/IC50 for testing chemical)%
Procedure: as §1, with “BSA conjugated with 5-FU (5-FU-BSA) was concentrated and stored in the same phosphate buffer (pH 7.8).” left out
as §2, with “The 5-FU ELISA assay signal (OD450) decreased proportionally to the increasing concentration of 5-FU.” left out
In addition to tegafur, several 5-FU structurally related chemicals were also evaluated for their cross-reactivity to the antibodies generated with 5-FU conjugate with the 3-carbon linker and were summarized below in Table 3. […]

[3] = Indirect antibody ELISA, cross-reactivity with DH-5-FU; details: Table 3; (IC50 for 5-FU/IC50 for testing chemical)%
Excerpt: (§3) This indirect antibody ELISA assay 5-FU assay was constructed using either 1-3C-5-FU-BSA or 1-5C-5-FU-BSA as antibody capture reagent and a horseradish perioxidase (HRP) conjugated goat anti-mouse antibody as the antibody detector reagent. The binding of 5-FU antibody was detected with 3,3,5,5-TetraMethylBenzidine (TMB) as the HRP enzyme substrate. The 5-FU ELISA assay signal (OD450) decreased proportionally to the increasing concentration of 5-FU. The 5-FU IC50 and tegafur cross-reactivity were determined as in the previous section.
(§4) In addition to tegafur, several 5-FU structurally related chemicals were also evaluated for their cross-reactivity to the antibodies generated with 5-FU conjugate with the 3-carbon linker and were summarized below in Table 3. […] However, antibody 36H11 was highly specific for 5-FU and was detected for about 12% or lower cross-reactivity with tegafur.

[4] = Indirect antibody ELISA, cross-reactivity with uracil; details: Table 3; (IC50 for 5-FU/IC50 for testing chemical)%
Excerpt: as §3, §4

[5] = Indirect antibody ELISA, cross-reactivity with cytosine; details: Table 3; (IC50 for 5-FU/IC50 for testing chemical)%
Excerpt: as §3, §4

[6] = Indirect antibody ELISA, cross-reactivity with thymine; details: Table 3; (IC50 for 5-FU/IC50 for testing chemical)%
Excerpt: as §3, §4

[7] = Hybridoma supernatant competition test in ECL bridging assay; details: hybridoma culture supernatant; signal decreased in the presence of low level of 5-FU
Procedure: Hybridomas were screened between days 10-14 for the secretion of 5-FU antibody by the 5-FU antibody assay (Bridging-assay) described before. 25 μL of culture supernatant were transferred to an assay plate and mixed with 50 μL of 5-FU antibody assay master mix containing 100 ng/mL of each Bi-1-3C-5-FU-BSA and TAG Plus 1-3C-5-FU-BSA in 200 μg/mL of M280-SA beads. Samples were incubated for 30 minutes with shaking. Beads were recovered and resuspended in 150 μL of DILUENT and read in an M384 analyzer with 100 μL draw volume. Hybridomas identified from plates with greater than 20% of growing wells were re-cloned by limiting dilution in 96-well plate at 0.3 and 1.0 cells/well.
5-FU antibody specificity and cross-reactivity was tested on hybridomas that were identified as positive for 5-FU binding. […]
Typically, 25 μL of culture supernatant were mixed with 50 μL of 5-FU assay master mix containing 100 ng/mL of each Bi-1-3C-5-FU-BSA and TAG Plus 1-3C-5-FU-BSA in 200 μg/mL of M280-SA beads with or without competing chemicals. […] Beads were recovered and resuspended in 150 μL of DILUENT and read in an M384 analyzer with 100 μL draw volume.
X_RCT=cross-reactivity (calculated 5-FU concentration/10 μg/mL).

[8] = ECL assay with TAG Plus mAb as detector and position-3 modified 5-FU capture reagent; details: Bi-3-5C-5-FU-HSA pre-bound M280-SA beads
Procedure: Unless otherwise specifically mentioned, a 5-FU immunoassay was set up by mixing the same volumes of sample with capture reagent first and then with detector reagent in a 96 well plate. After adding reagents, samples were mixed for 5 minutes at room temperature with shaking. After the incubation, beads were recovered by attaching a plate magnet to the assay plate for 2 minutes and resuspending in 150 μL of DILUENT. Samples were either read in an M384 or an M1MR analyzer with 100 μL draw volume under the 96 standard round plate protocol.
The performance of TAG Plus conjugated antibody 61C6 as an assay detector reagent was studied. Assay performance was evaluated in 5-FU Antibody Screening Buffer with a 5-fold 5-FU serial dilution curve from 150 μg/mL to 9.6 ng/mL as 5-FU calibrators (samples).
A total of 5 capture reagents were evaluated in this experiment. Three capture reagents were 5-FU bound to M280-SA beads through biotinylated BSA including Bi-1-3C-5-FU-BSA, Bi-1-5C-5-FU-BSA and Bi-3-5C-5-FU-HSA pre-bound to M280-SA beads at the ratio of 1.0 μg capture reagent per mg beads (200 μg/mL). […]
The assay detector reagent used was TAG Plus 5-FU mAb 61C6 at the concentration of 2.0 μg/mL. […] The plate was read in an M384 ECL Analyzer with a draw volume of 100 μL under 96 standard plate protocol. […]

B1: mAb 61C6: monoclonal anti-5-FU antibody, IgG2b κ; heavy chain SEQ ID NO:2, light chain SEQ ID NO:6; from 3-carbon linker immunogen (antibody, listed as Mus musculus)
heavy: MDWLWNLLFLMAAAQSIQAQIQLVQSGPELKKPGETVTISCKASGYTLTNYGMNWVKQAPGKGLKWMGWINTNSGEPTYVEEFKGRFAFSLETSVSTVYLQISDLKHEDTATYFCARWGPHFNAYGWFAYWGQGTLVTVSAAKTTPPSVYPLAPGCGDTTGSSVTLGCLVKGYFPESVTVTWNSGSLSSSVHTFPALLQSGLYTMSSSVTVPSSTWPSQTVTCSVAHPASSTTVDKKLEPSGPISTINPCPPCKECHKCPAPNLEGGPSVFIFPPNIKDVLMISLTPKVTCVVVDVSEDDPDVQISWFVNNVEVHTAQTQTHREDYNSTIRVVSTLPIQHQDWMSGKEFKCKVNNKDLPSPIERTISKIKGLVRAPQVYILPPPAEQLSRKDVSLTCLVVGFNPGDISVEWTSNGHTEENYKDTAPVLDSDGSYFIYSKLNMKTSKWEKTDSFSCNVRHEGLKNYYLKKTISRSPGK
light: MMSSAQFLGLLLLCFQGTRCYIQMTQTASSLSASLGDRVTISCRASQDIWNYLNWYQQKPDGTIKLLIYYKSRLHSGVPSRFSGSGSGIDFSLTISNLEQEDFATYFCQQGHTLPWTFGGGSKLEIKRADAAPTVSIFPPSSEQLTSGGASVVCFLNNFYPKDINVKWKIDGSERQNGVLNSWTDQDSKDSTYSMSSTLTLTKDEYERHNSYTCEATHKTSTSPIVKSFNRNEC
notes: monoclonal anti-5-FU antibody, IgG2b κ; from 3-carbon linker immunogen
[1]; Table 3, (IC50 for 5-FU/IC50 for testing chemical)%, reference
  Cross-reactivity 5-FU: 100%
[1]; indirect ELISA, 5-FU IC50 on 5-carbon vs 3-carbon linker 5-FU conjugate
  Ratio of IC50 on 5-FU Conjugates with 5-carbon Linker vs. 3-carbon Linker: 4.7
[2]; Table 3
  Cross-reactivity Tegafur: 28%
[2]; indirect ELISA
  Tegafur Cross-reactivity**: 28%
[3]
  Cross-reactivity DH-5-FU: 1.4%
[4]
  Cross-reactivity Uracil: 1.4%
[5]
  Cross-reactivity Cytosine: 0.57%
[6]
  Cross-reactivity Thymine: Undetectble
[7]
  specificity to 5-FU: better specificity to 5-FU
[8]
  reactivity with position 3 modified 5-FU (3-5C-5-FU-HSA) capture reagent: reactive
